Source: PMC5270756

Substrate: c1cc2ccc3cccc4ccc(c1)c2c34
Test: oxidation kinetics
Assay type: biochemical, Homo sapiens
Settings: heme; NADPH

B1: P450 1A1 (Homo sapiens) (protein)
chain: MLFPISMSATEFLLASVIFCLVFWVIRASRPQVPKGLKNPPGPWGWPLIGHMLTLGKNPHLALSRMSQQYGDVLQIRIGSTPVVVLSGLDTIRQALVRQGDDFKGRPDLYTFTLISNGQSMSFSPDSGPVWAARRRLAQNGLKSFSIASDPASSTSCYLEEHVSKEAEVLISTLQELMAGPGHFNPYRYVVVSVTNVICAICFGRRYDHNHQELLSLVNLNNNFGEVVGSGNPADFIPILRYLPNPSLNAFKDLNEKFYSFMQKMVKEHYKTFEKGHIRDITDSLIEHCQEKQLDENANVQLSDEKIINIVLDLFGAGFDTVTTAISWSLMYLVMNPRVQRKIQEELDTVIGRSRRPRLSDRSHLPYMEAFILETFRHSSFVPFTIPHSTTRDTSLKGFYIPKGRCVFVNQWQINHDQKLWVNPSEFLPERFLTPDGAIDKVLSEKVIIFGMGKRKCIGETIARWEVFLFLAILLQRVEFSVPLGVKVDMTPIYGLTMKHACCEHFQMQLRS
Km: 1.7 µM
